Results reported in patent US20210030857A1 (NGM BIOPHARMACEUTICALS, published 2021).
Several values for one entry are separate records, joined by “and”; a condition that tells them apart may be missing. Identical values can stand only once.

Assays:
[1] = molecular target: cynomolgus beta klotho / human FGFR1c receptor complex on cells (cynomolgus monkey (Macaca …)); test: cell-based or functional assay
[2] = molecular target: T1, mouse beta klotho expressed on cells (mouse (Mus musculus), UniProt Q99N32 1-1043); test: FACS on transfected Expi293 cells, antibody 1 µg/ml, labelled anti-human Fc
T1 construct: also called Mouse KLB
T1 sequence: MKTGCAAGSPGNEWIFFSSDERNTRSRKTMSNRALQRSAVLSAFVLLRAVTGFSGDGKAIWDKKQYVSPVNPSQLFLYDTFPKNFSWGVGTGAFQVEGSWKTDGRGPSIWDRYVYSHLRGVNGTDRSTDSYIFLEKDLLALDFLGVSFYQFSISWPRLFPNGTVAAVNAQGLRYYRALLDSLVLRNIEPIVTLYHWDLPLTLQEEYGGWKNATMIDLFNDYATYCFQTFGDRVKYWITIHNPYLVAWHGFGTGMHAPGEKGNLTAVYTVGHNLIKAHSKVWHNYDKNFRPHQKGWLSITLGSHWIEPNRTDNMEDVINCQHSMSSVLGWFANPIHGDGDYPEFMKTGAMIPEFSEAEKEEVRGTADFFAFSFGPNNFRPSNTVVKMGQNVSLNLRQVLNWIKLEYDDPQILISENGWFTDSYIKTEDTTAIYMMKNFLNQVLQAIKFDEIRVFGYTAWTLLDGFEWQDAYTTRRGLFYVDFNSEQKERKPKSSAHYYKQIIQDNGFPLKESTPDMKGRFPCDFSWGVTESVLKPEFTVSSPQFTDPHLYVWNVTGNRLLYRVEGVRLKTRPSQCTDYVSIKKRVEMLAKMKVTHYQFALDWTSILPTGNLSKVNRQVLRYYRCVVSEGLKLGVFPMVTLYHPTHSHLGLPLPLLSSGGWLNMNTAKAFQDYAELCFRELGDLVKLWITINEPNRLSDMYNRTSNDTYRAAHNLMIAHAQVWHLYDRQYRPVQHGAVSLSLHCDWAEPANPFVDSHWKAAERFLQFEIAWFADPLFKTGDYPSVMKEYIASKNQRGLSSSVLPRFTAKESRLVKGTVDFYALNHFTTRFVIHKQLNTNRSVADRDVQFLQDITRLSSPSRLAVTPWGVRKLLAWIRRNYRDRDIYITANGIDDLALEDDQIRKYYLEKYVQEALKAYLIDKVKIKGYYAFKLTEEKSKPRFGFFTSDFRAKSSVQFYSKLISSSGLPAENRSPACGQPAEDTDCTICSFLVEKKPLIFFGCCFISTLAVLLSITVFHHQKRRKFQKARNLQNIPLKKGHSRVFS
Description: (§1) Studies were performed in order to localize the binding site on human KLB of anti-beta klotho antibodies in the 5H23 epitope bin, including 5H23 as described in Example 3, with sequences shown in Tables 1-10 and FIGS. 1-3, and human anti-beta klotho antibodies in the 5H23 epitope bin, such as humanized 5H23 antibodies (e.g., VH SEQ ID NO: 271 and VL SEQ ID NO: 276). For example, FACS-based binding assays for domain mapping were performed on Expi293 cells (Life Technologies, A14635) that were transiently transfected with plasmids encoding variants of KLB: human, mouse, cynomolgus, a chimeric version in which the KL1 domain sequence of mouse KLB (M1-F506) replaces the KL1 domain of human KLB (M1-F508) to create mouse-human KLB (SEQ ID NO: 376), and a second chimera in which the human KL1 sequence (M1-F508) replaces the KL1 domain of mouse KLB (M1-F506) to create human-mouse KLB (SEQ ID NO: 374). Additionally, the expression vector pYD7 harboring no KLB sequence was transfected as a negative control.
(§2) In some studies, binding of a purified sample of a humanized 5H23 antibody (e.g., VH SEQ ID NO: 271 and VL SEQ ID NO: 276) to KLB variants was determined by FACS analysis. […] After washing with PBS/1% BSA/0.1% azide, transfected cells were then co-incubated with labeled anti-human Fc (Jackson lmmunoresearch) for 30 minutes at 4° C. After washing with PBS/1% BSA/0.1% azide, cells were acquired on flow cytometer (FACS Calibur) and analyzed by cytometric software (FlowJo). To display the resulting data, graphs plotting the number of cells as a function of fluorescence intensity were generated, and the median fluorescence intensity (MFI) was determined for each sample as shown in Table 30.

[3] = molecular target: T2, mouse-human KLB chimeric protein (mouse KLB (M1-F506)-human KLB (S509-S1044)) on cells (mouse/human chimera, UniProt Q86Z14 1-1044 (human entry)); test: as above
T2 construct: also called Mouse-Human chimeric KLB; chMoHu
Description: as §1, §2

[4] = molecular target: T3, human beta klotho / human FGFR1c receptor complex on cells (human, UniProt Q86Z14 1-1044; P11362 22-822); test: cell-based or functional assay
[5] = molecular target: T2, mouse-human KLB chimeric protein (mouse …); test: FACS on transfected Expi293 cells
Description: as §1, §2

[6] = molecular target: T3, human beta klotho / human FGFR1c …; test: cell-based or functional assay; remark: listed apart in the source

cynomolgus beta klotho / human FGFR1c receptor complex on cells (cynomolgus monkey (Macaca …)), sequence (chain, as listed by the source limits assumed, chain 1 of 2): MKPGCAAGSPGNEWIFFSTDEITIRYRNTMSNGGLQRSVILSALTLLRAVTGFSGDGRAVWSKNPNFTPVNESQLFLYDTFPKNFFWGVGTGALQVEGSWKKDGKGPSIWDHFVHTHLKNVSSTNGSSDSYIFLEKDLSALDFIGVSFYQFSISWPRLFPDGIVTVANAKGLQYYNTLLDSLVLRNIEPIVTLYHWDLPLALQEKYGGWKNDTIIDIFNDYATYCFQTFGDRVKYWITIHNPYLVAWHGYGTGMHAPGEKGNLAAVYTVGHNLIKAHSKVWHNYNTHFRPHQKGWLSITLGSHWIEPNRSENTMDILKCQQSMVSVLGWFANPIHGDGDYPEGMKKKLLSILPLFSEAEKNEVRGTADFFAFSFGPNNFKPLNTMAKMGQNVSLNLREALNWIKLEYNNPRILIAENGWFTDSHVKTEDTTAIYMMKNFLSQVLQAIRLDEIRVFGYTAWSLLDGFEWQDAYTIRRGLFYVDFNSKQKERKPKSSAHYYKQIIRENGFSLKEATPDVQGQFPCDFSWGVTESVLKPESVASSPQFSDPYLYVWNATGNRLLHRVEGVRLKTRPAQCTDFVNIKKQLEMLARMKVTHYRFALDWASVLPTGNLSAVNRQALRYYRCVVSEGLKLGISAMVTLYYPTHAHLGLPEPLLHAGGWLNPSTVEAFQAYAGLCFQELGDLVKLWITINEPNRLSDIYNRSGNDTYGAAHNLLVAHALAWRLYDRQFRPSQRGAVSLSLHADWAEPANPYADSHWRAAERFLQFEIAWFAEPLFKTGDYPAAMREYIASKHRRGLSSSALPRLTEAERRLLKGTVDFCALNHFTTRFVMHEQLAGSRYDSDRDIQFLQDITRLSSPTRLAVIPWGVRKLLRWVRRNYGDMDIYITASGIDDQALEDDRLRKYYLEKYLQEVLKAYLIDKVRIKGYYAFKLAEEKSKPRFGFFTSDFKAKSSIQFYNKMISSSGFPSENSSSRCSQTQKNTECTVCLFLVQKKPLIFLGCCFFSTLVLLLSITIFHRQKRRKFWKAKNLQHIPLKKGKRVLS
cynomolgus beta klotho / human FGFR1c receptor complex on cells (cynomolgus monkey (Macaca …)), sequence (chain, as listed by the source limits assumed, chain 2 of 2): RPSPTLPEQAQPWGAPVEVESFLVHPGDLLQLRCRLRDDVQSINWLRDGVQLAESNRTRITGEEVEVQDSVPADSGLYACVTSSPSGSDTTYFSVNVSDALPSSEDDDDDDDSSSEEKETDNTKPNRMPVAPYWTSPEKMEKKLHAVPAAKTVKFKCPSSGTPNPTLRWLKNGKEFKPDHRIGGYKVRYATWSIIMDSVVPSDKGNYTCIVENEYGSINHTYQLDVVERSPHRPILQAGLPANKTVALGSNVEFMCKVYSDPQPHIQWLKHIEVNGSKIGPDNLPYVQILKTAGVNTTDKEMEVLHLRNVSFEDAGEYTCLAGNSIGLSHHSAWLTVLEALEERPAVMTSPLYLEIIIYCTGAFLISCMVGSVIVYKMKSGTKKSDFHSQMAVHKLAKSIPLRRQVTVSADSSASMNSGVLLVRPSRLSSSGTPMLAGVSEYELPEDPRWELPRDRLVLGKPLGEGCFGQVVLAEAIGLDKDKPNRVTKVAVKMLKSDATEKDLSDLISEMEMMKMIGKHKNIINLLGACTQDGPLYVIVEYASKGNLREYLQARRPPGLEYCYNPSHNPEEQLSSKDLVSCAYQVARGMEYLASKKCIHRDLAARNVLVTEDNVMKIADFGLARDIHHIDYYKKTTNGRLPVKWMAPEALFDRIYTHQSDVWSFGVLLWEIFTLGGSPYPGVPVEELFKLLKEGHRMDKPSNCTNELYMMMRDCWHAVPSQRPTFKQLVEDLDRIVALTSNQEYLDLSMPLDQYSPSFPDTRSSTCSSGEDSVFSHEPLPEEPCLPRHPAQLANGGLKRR
T3 sequence (Q86Z14 whole entry, chain 1 of 2): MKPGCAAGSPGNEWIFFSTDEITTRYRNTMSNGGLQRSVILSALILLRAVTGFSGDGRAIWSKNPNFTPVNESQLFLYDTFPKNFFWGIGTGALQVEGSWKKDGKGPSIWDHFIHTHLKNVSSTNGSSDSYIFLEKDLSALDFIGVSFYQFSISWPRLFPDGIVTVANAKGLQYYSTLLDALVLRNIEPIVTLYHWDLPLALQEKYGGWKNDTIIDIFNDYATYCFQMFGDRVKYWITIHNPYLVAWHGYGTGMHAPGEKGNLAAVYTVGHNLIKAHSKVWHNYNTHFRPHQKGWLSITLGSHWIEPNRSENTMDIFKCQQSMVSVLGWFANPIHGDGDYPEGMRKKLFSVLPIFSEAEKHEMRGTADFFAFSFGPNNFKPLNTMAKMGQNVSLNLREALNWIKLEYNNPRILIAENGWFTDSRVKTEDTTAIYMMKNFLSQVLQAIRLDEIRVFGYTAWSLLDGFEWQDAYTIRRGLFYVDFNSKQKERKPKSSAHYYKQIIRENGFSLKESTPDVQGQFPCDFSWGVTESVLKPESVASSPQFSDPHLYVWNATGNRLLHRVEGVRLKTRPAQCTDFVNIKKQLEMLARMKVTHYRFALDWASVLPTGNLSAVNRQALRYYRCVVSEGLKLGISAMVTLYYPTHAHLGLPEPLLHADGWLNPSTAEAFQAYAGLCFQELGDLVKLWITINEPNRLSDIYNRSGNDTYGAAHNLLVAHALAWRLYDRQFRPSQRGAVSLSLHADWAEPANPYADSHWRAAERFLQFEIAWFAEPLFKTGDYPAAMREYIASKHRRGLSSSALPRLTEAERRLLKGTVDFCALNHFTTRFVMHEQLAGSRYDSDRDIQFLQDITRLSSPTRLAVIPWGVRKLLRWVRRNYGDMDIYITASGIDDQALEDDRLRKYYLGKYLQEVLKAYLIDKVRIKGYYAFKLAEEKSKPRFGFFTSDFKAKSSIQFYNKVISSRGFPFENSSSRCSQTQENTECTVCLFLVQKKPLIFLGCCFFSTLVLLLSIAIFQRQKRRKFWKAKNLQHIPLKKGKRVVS
T3 sequence (P11362 22-822 limits assumed, chain 2 of 2): as the sequence (chain, as listed by the source limits assumed, chain 2 of 2) above

HEK293 cynoKLB/R1c reporter assay EC50, Experiment - A [1]: 0.108 nM and 0.178 nM
HEK293 cynoKLB/R1c reporter assay EC50, Experiment - B [1]: 0.227 nM
Mean Fluorescence intensity [2]: 10.6 MFI
Mean Fluorescence intensity [3]: 5.6 MFI
HEK293 huKLB/R1c reporter assay EC50, Experiment - A [4]: 0.0453 nM
HEK293 huKLB/R1c reporter assay EC50, Experiment - B [4]: 0.0279 nM
binding result [5]: no binding (tested: 1 µg/ml)
EC50-adipocyte [6]: 3.4 nM
EC50 reporter assay [6]: 0.2 nM and 0.54 nM
B1: Control mAb comprising SEQ ID NO: 358 and SEQ ID NO: 360 (antibody, human IgG2, lambda, V domains shown)
VH: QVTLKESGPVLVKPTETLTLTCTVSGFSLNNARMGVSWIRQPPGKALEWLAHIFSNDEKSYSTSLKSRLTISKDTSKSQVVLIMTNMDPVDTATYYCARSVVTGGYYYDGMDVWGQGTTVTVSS
VL: SYVLTQPPSVSVAPGQTARITCGGNNIGSESVHWYQQKPGQAPVLVVYDDSDRPSGIPERFSGSNSGNTATLTISRVEAGDEADYYCQVWDGNSDHVVFGGGTKLTVLG
notes: also called Control antibody
